Reference: patent publication US20220396627A1 (VERSEAU THERAPEUTICS, published 2022)

B1: 3L02 (antibody, V domains shown)
VH: DVQLQESGPGMVKPSQSLSLTCTVTGYSITSGYDWHWIRHFPGNKLEWMGYISYSAGTNYNPSLKSRISITHDTSKNHFFLKLNSVTTEDTATYYCAREGLTAYWYFDVWGTGTTVTVSS
VL: DIVMTQSQKFMSTSVGDRVSVTCKASQTVGTNVAWYQQKPGQSPKPLIYSASYRYSGVPDRFTGSGSGTDFTLTISNVQSEDLAEYFCQQYDSFPLTFGSGTKLEIK
B2: 12L19 (antibody, V domains shown)
VH: QVTLKESGPGILQPSQTLSLTCSFSGFSLNTFGMAVGWIRQPSGKGLEWLAHIWWDDSYYFNPALRSRLTISKDTSKNQVFLTIANVDTADTATYYCTRIPDDYDDYAMDYWGQGTSVTVSS
VL: DVVMTQTPLSLPVSLGDQASISCRSSQSLVHSNGNTYLHWYLQKPGQSPKLLVYKVSNRFSGVPDRFSGSGSGTDFTLKISRVEAEDLGVYFCSQNTHIPYTFGGGTKLEIK
B3: 9C15 (antibody, V domains shown)
VH: QVQLQQPGAELVKPGASVKMSCKASGYTFTSYWITWLNQRPGQGLEWIGDIYPGSGGTNYNERFKSKATLTVDTSSSTAYMQLSSLTSEDSAVYYCARSGGWAMDYWGQGTSVTVSS
VL: DIQMTQTTSSLSASLGDRVTISCRASQDISNYLNWYQQKPDGTVKLLIYYKSGLHSGVPSRFSGSGSGTDYSLTISNLEQEDIATYFCQQGNTLPFTFGGGTKLEIK
B4: 9D21 (antibody, V domains shown)
VH: QVQLKESGPGLVAPSQSLSITCTVSGFSLTRYGVSWVRQPPGKGLEWLGVIWGDGSTNYHSALISRLSISKDNSKSQVFLKLNSLQTDDTATYYCARPYYGFFDYWGQGTTLTVSS
VL: SIVMTQTPKFLLVSAGDRVTITCKASQSVSNAVAWYQQKPGQSPKMLIYYASNRYTGVPDRFTGSGYGTDFTFTISTVQAEDLAVYFCQQDYSSPYTFGGGTKLEIK
B5: 12G23 (antibody, V domains shown)
VH: EVQLQQSGPELVRPGASVKMSCKASGYTFTDYNMHWVKQSHGKSLEWIGYINPNNGGTSYNQKFKGKATLTVNKSSSTAYMELRSLTSDDSAVYYCAREGYGNYPFYWGQGTTLTVSS
VL: DIVLTQSPASLAVSLGQRVTISCRGSESVEYYGTSLMQWYQQKPGQPPKLLIYAASNVESGVPARFSGSGSGTDFSLNIHPVEEDDIAMYFCQQDRKVPYTFGGGTKLEIK
B6: 13O18 (antibody, V domains shown)
VH: EVQLQQSGPELVRPGASVKMSCKASGYTFTDYNMHWVKQSHGKSLEWIGYINPNNGGTTYNQNFKGKATLTVNKSSSTAYMELRSLTSEDSAVYYCAREGYGNYPFYWGQGTTLTVSS
VL: DIVLTQSPASLAVSLGQRVTISCRASESVEYYGTSLMQWYQQKPGQPPKLLIYAASNVESGVPARFSGSGSGTDFSLNIHPVEEDDIAMFFCQQDRKVPYTFGGGTKLEIK
B7: 12P18 (antibody, V domains shown)
VH: QVQLQQSGAELVRPGASVTLSCKASGYTFTDYEMHWVKQTPVHGLEWIGAIDPEAGGTAYNRKFKGKAILTADKSSSTAYMELRSLTSEDSAVYYCTNLGRDYWGQGTTLTVSS
VL: DIVMSQSPSSLAVSVGEKVTMSCKSSQSLLYSSTQKNYLAWYQQKPGQSPKRLIYWASTRESGVPDRFTGSGSGTDFTLTISSVKAEDLAVYYCQQYYSYWTFGGGTKLEIK

Legend:
Human SIGLEC7 = target: T1, Human SIGLEC7; experiment: ELISA: plate coated with 1 ug/mL human Siglec-7-Fc, antibody at 100 nM, HRP anti-mouse Fc secondary, RLU
T1 construct: also called human Siglec-7-Fc
T1 sequence (Fc fusion chain, as listed by the source): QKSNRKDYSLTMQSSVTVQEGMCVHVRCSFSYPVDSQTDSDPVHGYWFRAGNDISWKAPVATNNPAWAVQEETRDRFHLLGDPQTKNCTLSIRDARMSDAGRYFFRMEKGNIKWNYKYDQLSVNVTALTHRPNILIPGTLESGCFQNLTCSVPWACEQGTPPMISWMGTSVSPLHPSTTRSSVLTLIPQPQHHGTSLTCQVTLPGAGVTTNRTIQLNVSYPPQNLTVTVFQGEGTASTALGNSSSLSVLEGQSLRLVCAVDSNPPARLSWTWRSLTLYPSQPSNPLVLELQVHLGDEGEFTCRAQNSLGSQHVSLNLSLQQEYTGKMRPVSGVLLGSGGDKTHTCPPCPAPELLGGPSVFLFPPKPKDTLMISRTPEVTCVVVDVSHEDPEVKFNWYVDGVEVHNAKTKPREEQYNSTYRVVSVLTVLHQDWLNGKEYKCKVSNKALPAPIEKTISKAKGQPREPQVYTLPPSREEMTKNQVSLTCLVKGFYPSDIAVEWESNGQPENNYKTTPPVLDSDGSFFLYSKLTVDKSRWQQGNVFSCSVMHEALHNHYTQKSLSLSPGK
Protocol: (§1) ELISA plates (384-well) were coated with 1 ug/mL indicated SIGLEC protein at room temperature. The plates were washed with PBS with 0.1% Tween®20, pH 7.4 and blocked with TBS containing 3% BSA. The plates were washed and incubated with anti-SIGLEC9 antibody diluted to 100 nM. Plates were washed and incubated with HRP-coupled anti-mouse Fc secondary antibody. Plates underwent a final wash and were incubated with HRP substrate. Readout was performed using a POLARstar Omega Microplate Reader (BMG LAPTECH).

[1] = target: T2, Human Siglec-9-Fc (recombinant human Siglec-9 extracellular domain Q18-G348 fused to human IgG1 Fc) (human); experiment: BLI binning, hSiglec-9-Fc on AHC sensor; competitor bound first (row): 9C15
T2 sequence (chain, as listed by the source limits assumed): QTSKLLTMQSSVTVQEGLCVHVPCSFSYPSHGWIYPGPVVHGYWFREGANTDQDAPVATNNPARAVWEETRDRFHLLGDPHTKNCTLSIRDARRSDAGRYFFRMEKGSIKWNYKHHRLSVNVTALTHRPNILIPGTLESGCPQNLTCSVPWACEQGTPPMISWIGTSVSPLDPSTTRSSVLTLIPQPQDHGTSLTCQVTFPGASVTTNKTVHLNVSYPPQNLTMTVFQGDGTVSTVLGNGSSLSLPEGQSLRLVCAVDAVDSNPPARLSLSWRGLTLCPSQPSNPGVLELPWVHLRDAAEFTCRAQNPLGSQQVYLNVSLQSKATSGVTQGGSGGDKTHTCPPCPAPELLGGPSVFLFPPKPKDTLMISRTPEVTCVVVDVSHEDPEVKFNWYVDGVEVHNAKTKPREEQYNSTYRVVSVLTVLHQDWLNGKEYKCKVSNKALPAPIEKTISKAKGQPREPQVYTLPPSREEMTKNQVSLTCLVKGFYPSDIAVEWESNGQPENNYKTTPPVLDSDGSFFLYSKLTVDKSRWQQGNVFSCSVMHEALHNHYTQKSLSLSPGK
Protocol: (§2) Epitopic diversity of functional antibodies was further assessed by antibody cross-blocking experiments, performed on a ForteBio Octet Red384 system. All samples were prepared in black 384-well flat bottom plates from (Greiner, Cat. #781209) with a working volume of 120 uL and diluted in kinetics buffer (1×DPBS containing 0.1% bovine serum albumin, 0.05% sodium azide, and 0.02% Tween®20). Anti-SIGLEC-9 antibodies and human Siglec-9-Fc protein were diluted in kinetics buffer to a final concentration of 10 ug/mL. Anti-human IgG Fc capture (AHC) biosensors (ForteBio, Cat. #18-5060) were rehydrated prior to the assay in kinetics buffer for 10 minutes then equilibrated in kinetics buffer for 60 seconds. Recombinant human Siglec-9-Fc was then immobilized for 120 seconds followed by a 30 second baseline wash in fresh kinetics buffer, 120 second association of a first antibody (antibody “a”), 30 second wash, and then 120 second association of a competitor antibody (antibody “b”). All assay steps occurred at 30° C. with an acquisition rate of 5.0 Hz.
(§3) Binning results were calculated using ForteBio Data Analysis HT software. Antibody “a” and antibody “b” steps were defined, and the maximum binding calculation was averaged at the last 10% of the step duration. Once the matrix was generated the self-self interaction was subtracted and hierarchical clustering was set with a similarity metric of Pearson and Lingang Criteria by Mean and the maximum binding nm shift is reported in Table 7 below.

[2] = target: T2, Human Siglec-9-Fc (recombinant human …); experiment: BLI binning, hSiglec-9-Fc on AHC sensor; competitor bound first (row): 12P18
Protocol: as §2, §3

[3] = target: T2, Human Siglec-9-Fc (recombinant human …); experiment: BLI binning, hSiglec-9-Fc on AHC sensor; competitor bound first (row): 3L02
Protocol: as §2, §3

[4] = target: T2, Human Siglec-9-Fc (recombinant human …); experiment: BLI binning, hSiglec-9-Fc on AHC sensor; competitor bound first (row): 12G23
Protocol: as §2, §3

Cyno SIGLEC9 = target: T3, Cyno SIGLEC9; experiment: ELISA: plate coated with 1 ug/mL cyno Siglec-9-Fc, antibody at 100 nM, HRP anti-mouse Fc secondary, RLU
T3 construct: also called cyno Siglec-9-Fc; Cynomolgus Monkey SIGLEC9-Fc
T3 sequence (Fc fusion chain, as listed by the source): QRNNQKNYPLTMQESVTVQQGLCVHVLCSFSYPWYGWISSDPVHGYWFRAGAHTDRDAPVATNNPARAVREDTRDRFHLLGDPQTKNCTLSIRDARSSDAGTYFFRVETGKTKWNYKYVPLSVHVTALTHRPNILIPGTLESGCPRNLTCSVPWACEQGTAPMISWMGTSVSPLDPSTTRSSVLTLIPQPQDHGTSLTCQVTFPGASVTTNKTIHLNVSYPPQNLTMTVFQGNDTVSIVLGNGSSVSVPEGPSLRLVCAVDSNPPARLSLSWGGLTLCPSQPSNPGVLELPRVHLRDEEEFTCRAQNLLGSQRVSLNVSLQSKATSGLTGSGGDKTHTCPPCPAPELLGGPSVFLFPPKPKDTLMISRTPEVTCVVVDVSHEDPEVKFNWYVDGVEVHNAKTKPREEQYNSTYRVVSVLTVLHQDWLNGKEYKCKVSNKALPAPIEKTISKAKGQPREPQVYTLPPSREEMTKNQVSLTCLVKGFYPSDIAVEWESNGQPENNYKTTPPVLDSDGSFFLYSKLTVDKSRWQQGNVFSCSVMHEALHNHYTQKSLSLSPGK
Protocol: as §1

[5] = target: T2, Human Siglec-9-Fc (recombinant human …); experiment: BLI binning, hSiglec-9-Fc on AHC sensor; competitor bound first (row): 13H10 (printed 13H110)
Protocol: as §2, §3

[6] = target: T2, Human Siglec-9-Fc (recombinant human …); experiment: BLI binning, hSiglec-9-Fc on AHC sensor; competitor bound first (row): 2F15
Protocol: as §2, §3

[7] = target: T2, Human Siglec-9-Fc (recombinant human …); experiment: BLI binning, hSiglec-9-Fc on AHC sensor; competitor bound first (row): 9D21
Protocol: as §2, §3

[8] = target: T2, Human Siglec-9-Fc (recombinant human …); experiment: BLI binning, hSiglec-9-Fc on AHC sensor; competitor bound first (row): 13O18
Protocol: as §2, §3

[9] = target: T2, Human Siglec-9-Fc (recombinant human …); experiment: BLI binning, hSiglec-9-Fc on AHC sensor; competitor bound first (row): 13J19
Protocol: as §2, §3

[10] = target: T2, Human Siglec-9-Fc (recombinant human …); experiment: BLI binning, hSiglec-9-Fc on AHC sensor; competitor bound first (row): 12L19
Protocol: as §2, §3

Binder | binding result (Human SIGLEC7) | maximum binding nm shift [1] [nm] | maximum binding nm shift [2] [nm] | maximum binding nm shift [3] [nm] | maximum binding nm shift [4] [nm] | binding result (Cyno SIGLEC9) | maximum binding nm shift [5] [nm] | maximum binding nm shift [6] [nm] | maximum binding nm shift [7] [nm] | maximum binding nm shift [8] [nm] | maximum binding nm shift [9] [nm] | maximum binding nm shift [10] [nm]
B1 | no binding (tested: 100 nM) | – | – | – | – | – | – | – | – | – | – | –
B2 | no binding (tested: 100 nM) | 0.231 | 0.379 | 0.09 | 0.185 | no binding (tested: 100 nM) | -0.02 | 0.198 | 0.263 | 0.202 | 0.175 | –
B3 | – | – | 0.003 | 0.472 | 0.352 | – | 0.336 | 0.399 | 0.395 | 0.392 | 0.282 | 0.392
B4 | binds | 0.561 | 0.658 | 0.745 | 0.524 | binds | 0.686 | 0.619 | – | 0.495 | -0.022 | 0.73
B5 | – | 0.233 | 0.231 | 0.277 | – | – | 0.242 | 0.001 | 0.162 | 0.011 | 0.139 | 0.263
B6 | – | 0.232 | 0.228 | 0.271 | -0.016 | – | 0.224 | 0.003 | 0.163 | – | 0.135 | 0.251
B7 | no binding (tested: 100 nM) | 0.03 | – | 0.463 | 0.439 | no binding (tested: 100 nM) | 0.336 | 0.352 | 0.349 | 0.358 | 0.324 | 0.518
